Results taken from article PMC13354579.

Assays:
K48-linked triubiquitin = K48-linked triubiquitin (UniProt P0CG48); assay: ITC; MicroCal PEAQ-ITC, 25 °C, 50 mM Tris-HCl pH 7.5, 150 mM NaCl, 250 µM TCEP; DUB in the syringe titrated into K48-linked polyUb in the cell, in other experiments the scarcest species in the cell; n = 2, mean ± SD
[1] = target: full-length MINDY3 (human) (UniProt Q9H8M7); assay: as above
Chain of full-length MINDY3 (human) (Q9H8M7 whole entry): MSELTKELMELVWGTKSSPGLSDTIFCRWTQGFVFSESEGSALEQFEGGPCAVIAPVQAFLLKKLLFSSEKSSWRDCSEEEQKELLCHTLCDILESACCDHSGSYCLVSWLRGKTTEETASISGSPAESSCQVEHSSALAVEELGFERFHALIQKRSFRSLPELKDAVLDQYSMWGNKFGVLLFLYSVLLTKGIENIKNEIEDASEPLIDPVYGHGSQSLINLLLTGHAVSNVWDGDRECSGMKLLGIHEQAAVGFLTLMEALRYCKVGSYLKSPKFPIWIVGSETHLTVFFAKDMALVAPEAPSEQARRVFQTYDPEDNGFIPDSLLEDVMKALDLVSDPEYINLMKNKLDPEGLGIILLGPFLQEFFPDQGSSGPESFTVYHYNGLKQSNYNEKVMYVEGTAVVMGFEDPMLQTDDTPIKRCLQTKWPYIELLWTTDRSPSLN

Substance | Kd (K48-linked triubiquitin) | Kd [1] | dH [1]
MINDY3^EF-hand (from UniProt Q9H8M7 297-370) (domain or fragment) | 6 µM |  | 
full-length RAD23A (from UniProt P54725 1-363) (natural protein) |  | 12.2 µM | -4.84 kJ/mol
